Here are results for one molecule from patent US20150216779A1, “COMPOSITIONS FOR TARGETED ANTI-AGING THERAPY” (THE TEXAS A&M UNIVERSITY SYSTEM, priority 2012, published 2015).

A short description of series [1]: Turbidity after heating at 90° C. for 30 seconds (plate heat exchanger). The format is physicochemical. The note with it: 1 mg/ml lactoferrin in 10 mM potassium acetate, pH 6.3; heated at 90° C. for 30 seconds. As to the method: Formulations containing heat-stabilized lactoferrin (1 mg/ml) without added branched-chain amino acids (Formulation 1) and heat-stabilized lactoferrin (1 mg/ml) with added branched-chain amino acids (2 mg/ml) (Formulation 2) were dissolved in the buffered solution (10 mM potassium acetate, pH 6.3) to make 4 liters solution. The two liquid formulations were heated by using a plate heat exchanger at 90° C. for 30 seconds, and cooled to 5° C., after which they were stored in sterilized bottles, and bubbled with carbon dioxide (CO2) in an aseptic room. The two resultant liquid formulations with a zinc ion concentration of 2.4 mg per 100 ml had excellent taste and appearance. […] Lactoferrin aggregation occurred at pH 6.3, which corresponded to its high thermal instability.

For series [2] the following is noted: heat-treated at 63 and 85° C.; cited from earlier work.

B1: lactoferrin: iron-binding glycoprotein of the transferrin family present in milk; unstabilized buffered solution at 1 mg/ml (protein, UniProt P24627 20-708, looked up)
Lactotransferrin: APRKNVRWCTISQPEWFKCRRWQWRMKKLGAPSITCVRRAFALECIRAIAEKKADAVTLDGGMVFEAGRDPYKLRPVAAEIYGTKESPQTHYYAVAVVKKGSNFQLDQLQGRKSCHTGLGRSAGWIIPMGILRPYLSWTESLEPLQGAVAKFFSASCVPCIDRQAYPNLCQLCKGEGENQCACSSREPYFGYSGAFKCLQDGAGDVAFVKETTVFENLPEKADRDQYELLCLNNSRAPVDAFKECHLAQVPSHAVVARSVDGKEDLIWKLLSKAQEKFGKNKSRSFQLFGSPPGQRDLLFKDSALGFLRIPSKVDSALYLGSRYLTTLKNLRETAEEVKARYTRVVWCAVGPEEQKKCQQWSQQSGQNVTCATASTTDDCIVLVLKGEADALNLDGGYIYTAGKCGLVPVLAENRKSSKHSSLDCVLRPTEGYLAVAVVKKANEGLTWNSLKDKKSCHTAVDRTAGWNIPMGLIVNQTGSCAFDEFFSQSCAPGADPKSRLCALCAGDDQGLDKCVPNSKEKYYGYTGAFRCLAEDVGDVAFVKNDTVWENTNGESTADWAKNLNREDFRLLCLDGTRKPVTEAQSCHLAVAPNHAVVSRSDRAAHVKQVLLHQQALFGKNGKNCPDKFCLFKSETKNLLFNDNTECLAKLGGRPTYEEYLGTEYVTAIANLKKCSTSPLLEACAFLTR
In the case of B1, in series [1], the “appearance of solution after heating (turbidity / transparency)” value is reported as “turbid”. For the same molecule, the “immunological properties after heat treatment” value in series [2] is “loses its immunological properties”.
